B1: NONO (Non-POU domain-containing octamer-binding protein): T440A (protein)
parent chain: MQSNKTFNLEKQNHTPRKHHQHHHQQQHHQQQQQQPPPPPIPANGQQASSQNEGLTIDLKNFRKPGEKTFTQRSRLFVGNLPPDITEEEMRKLFEKYGKAGEVFIHKDKGFGFIRLETRTLAEIAKVELDNMPLRGKQLRVRFACHSASLTVRNLPQYVSNELLEEAFSVFGQVERAVVIVDDRGRPSGKGIVEFSGKPAARKALDRCSEGSFLLTTFPRPVTVEPMDQLDDEEGLPEKLVIKNQQFHKEREQPPRFAQPGSFEYEYAMRWKALIEMEKQQQDQVDRNIKEAREKLEMEMEAARHEHQVMLMRQDLMRRQEELRRMEELHNQEVQKRKQLELRQEEERRRREEEMRRQQEEMMRRQQEGFKGTFPDAREQEIRMGQMAMGGAMGINNRGAMPPAPVPAGTPAPPGPATMMPDGTLGLTPPTTERFGQAATMEGIGAIGGTPPAFNRAAPGAEFAPNKRRRY
B2: NONO (Non-POU domain-containing octamer-binding protein): myc-tagged OGT overexpression (protein)
parent chain: B1 parent chain

Tests used:
[1] = NONO immunostaining, paraspeckle count per nucleus; settings: glycan lost; control: NONO WT in NONO-KO HCT116
[2] = NONO immunostaining, speckle count, HCT116; settings: glycan gained; control: 5.5 mM glucose, no OGT

Row | Protein | localisation_or_trafficking [1] | localisation_or_trafficking [2]
1 | B1 | decreases | –
2 | B2 | – | increases

— paper PMC12075841
